# Results as given in patent US20140087995A1 (published 2014).
# Numbered stars: 1 amine (or outer) side, 2 acyl side, 3 side chain; on linkers, the order of the positions; unused ones are H or OH. Bridge positions count the residues as written; N and C are the ends. Side chains are listed from the residue outwards. Ends that are not written are not given here. * marks the point of attachment. C20 diacid = O=C(O)CCCCCCCCCCCCCCCCCCC(=O)*; γGlu = O=C(O)[C@H](CCC(=O)[*:2])N[*:1]; AEEA = NCCOCCOCC(=O)O
# T1: human calcitonin receptor (human, UniProt P30988 25-474)
# T1 construct: whole, on cells; Membranes of stably transfected cells; also called hCTR; hCT
# T1 sequence (looked up): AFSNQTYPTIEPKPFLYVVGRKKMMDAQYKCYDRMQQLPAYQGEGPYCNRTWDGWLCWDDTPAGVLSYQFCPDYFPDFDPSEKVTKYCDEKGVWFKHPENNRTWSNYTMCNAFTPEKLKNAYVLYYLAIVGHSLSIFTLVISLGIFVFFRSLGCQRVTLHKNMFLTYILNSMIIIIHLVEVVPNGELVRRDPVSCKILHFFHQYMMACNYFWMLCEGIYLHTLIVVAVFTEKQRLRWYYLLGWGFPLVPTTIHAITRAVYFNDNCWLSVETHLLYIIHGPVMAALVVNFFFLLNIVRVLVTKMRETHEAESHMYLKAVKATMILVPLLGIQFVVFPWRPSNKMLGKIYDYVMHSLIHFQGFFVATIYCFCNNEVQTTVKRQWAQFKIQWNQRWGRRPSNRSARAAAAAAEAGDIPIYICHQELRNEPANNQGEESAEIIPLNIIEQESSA
# T2: rat calcitonin receptor (rat, UniProt P32214 25-516)
# T2 construct: whole, on cells; Membranes of transiently transfected BHK tk'ts 13 cells; also called rCTR; rat calcitonin (a) receptor
# T2 sequence (looked up): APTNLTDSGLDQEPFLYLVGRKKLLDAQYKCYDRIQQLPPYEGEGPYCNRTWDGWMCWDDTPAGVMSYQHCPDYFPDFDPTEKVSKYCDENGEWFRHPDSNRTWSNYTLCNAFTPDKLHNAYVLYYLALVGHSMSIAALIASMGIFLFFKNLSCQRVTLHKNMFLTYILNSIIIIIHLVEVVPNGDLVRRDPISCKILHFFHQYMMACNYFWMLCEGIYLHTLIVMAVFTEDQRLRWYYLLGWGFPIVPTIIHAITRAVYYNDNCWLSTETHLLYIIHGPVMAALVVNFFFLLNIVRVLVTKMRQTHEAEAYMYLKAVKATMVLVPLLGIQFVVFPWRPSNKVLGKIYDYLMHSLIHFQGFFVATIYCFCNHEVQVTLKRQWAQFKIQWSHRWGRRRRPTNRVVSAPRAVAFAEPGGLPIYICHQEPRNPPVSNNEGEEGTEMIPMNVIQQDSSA
# T3: rat amylin receptor (rat calcitonin receptor + rat RAMP 3) (rat, UniProt P32214 25-516; Q9JJ73 23-147)
# T3 construct: whole, on cells; Membranes of transiently transfected BHK tk'ts 13 cells; also called rAmylin-R; rat amylin 3(a) receptor
# T3 sequence (looked up) 1: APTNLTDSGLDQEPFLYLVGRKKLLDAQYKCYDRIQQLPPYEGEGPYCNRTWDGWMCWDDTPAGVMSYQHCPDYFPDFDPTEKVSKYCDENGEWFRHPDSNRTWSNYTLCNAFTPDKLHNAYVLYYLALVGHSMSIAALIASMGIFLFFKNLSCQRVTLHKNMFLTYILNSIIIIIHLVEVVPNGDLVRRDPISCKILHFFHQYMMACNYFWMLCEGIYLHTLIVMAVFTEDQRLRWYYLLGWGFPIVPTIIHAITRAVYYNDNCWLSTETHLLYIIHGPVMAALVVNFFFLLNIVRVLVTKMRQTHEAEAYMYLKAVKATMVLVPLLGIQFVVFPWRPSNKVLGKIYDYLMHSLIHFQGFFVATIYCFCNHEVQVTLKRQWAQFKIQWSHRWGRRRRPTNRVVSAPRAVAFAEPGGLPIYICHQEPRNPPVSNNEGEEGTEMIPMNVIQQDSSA
# T3 sequence (looked up) 2: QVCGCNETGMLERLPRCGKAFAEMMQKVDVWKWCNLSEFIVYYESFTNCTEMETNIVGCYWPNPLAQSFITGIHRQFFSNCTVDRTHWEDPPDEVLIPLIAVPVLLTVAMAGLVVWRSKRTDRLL
# What was measured:
# [1] = target: T1, human calcitonin receptor; assay: ratio of IC50 on human calcitonin receptor to IC50 on human amylin receptor (reference m42), SPA competition
# Method: The resulting pellet was resuspended, homogenized and centrifuged (20.000 rpm, 15 min) in a buffer containing 20 mM Na-HEPES and 0.1 mM EDTA (pH 7.4, buffer 2). The resulting pellet was resuspended in buffer 2 and protein concentration was measured (BCA protein Assay, Pierce). The homogenate was kept cold during the whole procedure. The membranes were kept at −80° C. until use. The assay was performed in a 384 well Optiplate (PerkinElmer) in a total volume of 40 ul. Membranes were mixed with SPA beads. Final concentration of membranes 35 ng/μL final and SPA beads was 0.05 mg/well. Test-compounds were dissolved in DMSO and further diluted in assay buffer (50 mM Hepes, pH 7.4, 1 mM CaCl2, 5 mM MgCl₂, 0.1% OA and 0.02% Tween20). […] The final mixture was incubated with shaking at 400 rpm for 120 min at 25° C. prior to centrifugation (1500 rpm, 10 min). Samples were analyzed on TopCounter™ (Packard). The IC₅₀ was calculated using (one site binding competition analysis) GraphPad Prism5 as a measure of receptor affinity.
# Membranes were prepared in the following way; the cells were rinsed with PBS and incubated with Versene for approximately 5 min before harvesting. The cells were flushed with PBS and the cell-suspension was centrifuged for 5 min at 1000 rpm. Cells were homogenized (Ultrathurrax) in a buffer containing 20 mM Na-HEPES and 10 mM EDTA (pH 7.4) and centrifuged at 20.000 rpm for 15 min. The resulting pellet was resuspended, homogenized and centrifuged (20.000 rpm, 15 min) in a buffer containing 20 mM Na-HEPES and 0.1 mM EDTA (pH 7.4, buffer 2). The resulting pellet was resuspended in buffer 2 and protein concentration was measured (BCA protein Assay, Pierce). The homogenate was kept cold during the whole procedure. The membranes were kept at −80° C. until use. Assay was performed in a 384 well Optiplate (PerkinElmer) in a total volume of 40 ul. Membranes were mixed with SPA beads.
# rat calcitonin receptor [2] = target: T2, rat calcitonin receptor; assay: ratio of IC50 on rat calcitonin receptor to IC50 on rat amylin receptor (reference m40)
# [3] = target: T3, rat amylin receptor (rat calcitonin …); assay: SPA competition with 125I-rat amylin on membranes of BHK tk'ts 13 cells with rat calcitonin receptor + rat RAMP3 (Assay VI)
# rat calcitonin receptor [4] = target: T2, rat calcitonin receptor; assay: SPA competition with 125I-calcitonin on membranes of BHK tk'ts 13 cells with rat calcitonin receptor (Assay VIII)
Ratio hCT/hAmylin binding [1],Ratio rCT/rAmylin binding (rat calcitonin receptor [2]),IC50 [3],IC50 (rat calcitonin receptor [4]),Binder
17.6,88.5,0.182 nM,16.1 nM,"K([γGlu-γGlu-C20 diacid])CNTATCATQRLAEFLRHSSPNFGAIPSSTNVGPETY-NH2 (disulfide 2-7 (inferred), Synthetic acylated analogue of human amylin)"
42.2,74.1,0.246 nM,18.2 nM,"K([AEEA-C20 diacid])CNTATCATQRLAHFLRHSSPNFGAIPSSTNVGSNTY-NH2 (disulfide 2-7; N-terminus assumed; SMILES CC[C@H](C)[C@H](NC(=O)[C@H](C)NC(=O)CNC(=O)[C@H](Cc1ccccc1)NC(=O)[C@H](CC(N)=O)NC(=O)[C@@H]1CCCN1C(=O)[C@H](CO)NC(=O)[C@H](CO)NC(=O)[C@H](Cc1c[nH]cn1)NC(=O)[C@H](CCCNC(=N)N)NC(=O)[C@H](CC(C)C)NC(=O)[C@H](Cc1ccccc1)NC(=O)[C@H](Cc1c[nH]cn1)NC(=O)[C@H](C)NC(=O)[C@H](CC(C)C)NC(=O)[C@H](CCCNC(=N)N)NC(=O)[C@H](CCC(N)=O)NC(=O)[C@@H](NC(=O)[C@H](C)NC(=O)[C@@H]1CSSC[C@H](NC(=O)[C@@H](N)CCCCNC(=O)COCCOCCNC(=O)CCCCCCCCCCCCCCCCCCC(=O)O)C(=O)N[C@@H](CC(N)=O)C(=O)N[C@@H]([C@@H](C)O)C(=O)N[C@@H](C)C(=O)N[C@@H]([C@@H](C)O)C(=O)N1)[C@@H](C)O)C(=O)N1CCC[C@H]1C(=O)N[C@@H](CO)C(=O)N[C@@H](CO)C(=O)N[C@H](C(=O)N[C@@H](CC(N)=O)C(=O)N[C@H](C(=O)NCC(=O)N[C@@H](CO)C(=O)N[C@@H](CC(N)=O)C(=O)N[C@H](C(=O)N[C@@H](Cc1ccc(O)cc1)C(N)=O)[C@@H](C)O)C(C)C)[C@@H](C)O, Synthetic acylated analogue of human amylin; also called compound 90) [N^ε1-[2-[2-[2-(19-carboxynonadecanoylamino)ethoxy]ethoxy]acetyl]-[His14,Arg17,Pro21,Pro27]-h-amylin]"
